In the supplement of paper PMC10126150:
± gives the standard deviation of the averaged measurements.

System: ATP
Assay: switch fluorescence ratio, 500 uM ATP over buffer (Cy3 cluster intensity, sum of 5 cycles each) (fold (ratio)); higher = stronger signal-on switching upon ATP binding; sequences stand for … in TCGTCGGCAGCGTCAGATGTGTATAAGAGACAGTTTTTTTTTTTTTTTTTTTTTTTTT…TC
Conditions: aptamer strand: ATP DNA aptamer (quencher-CACCTGGGGGAGTATTGCGGAGGAAGG + anchor), 100 nM annealed; ATP concentration: 500 uM
Method in brief: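 For every switch-domain sequence, the fluorescence ratio is the mean of per-cluster values, each being summed target-cycle Cy3 intensity over summed buffer-cycle Cy3 intensity. Clusters outside 100-1000 RFU were excluded. On a modified Illumina MiSeq flow-cell, the Cy3-labelled switching-strand clusters were annealed to 100 nM quencher-labelled ATP aptamer, imaged in selection buffer and then after 15 min with 500 uM ATP at 22 °C. Five such cycles were run, with NaOH stripping and re-annealing between them.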
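Also: ATP exposure 15 min at 22 °C before imaging.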

TTGGGGTTAA
switch fluorescence ratio: 1.03 ± 0.058

TTGGGGTTCA
switch fluorescence ratio: 0.9752 ± 0.0084

TTGGGGTTTG
switch fluorescence ratio: 0.975 ± 0.038

TTGGGTAATA
switch fluorescence ratio: 1.05 ± 0.087

TTGGGTATGA
switch fluorescence ratio: 1.01 ± 0.037

TTGGGTCCAA
switch fluorescence ratio: 0.983 ± 0.017

TTGGGTGATC
switch fluorescence ratio: 1.01 ± 0.049

TTGGGTGCTA
switch fluorescence ratio: 1.09 ± 0.16

TTGGGTGCTG
switch fluorescence ratio: 1.01 ± 0.032

TTGGGTGGGA
switch fluorescence ratio: 0.986 ± 0.044

TTGGGTGGGG
switch fluorescence ratio: 1 ± 0.049

TTGGGTGTCT
switch fluorescence ratio: 0.988 ± 0.057

TTGGGTGTGC
switch fluorescence ratio: 1.02 ± 0.061

TTGGGTTCGG
switch fluorescence ratio: 0.987 ± 0.038

TTGGGTTCGT
switch fluorescence ratio: 0.998 ± 0.037

TTGGGTTCTT
switch fluorescence ratio: 0.9937 ± 0.0066

TTGGGTTGTG
switch fluorescence ratio: 1.01 ± 0.041

TTGGTAAAGT
switch fluorescence ratio: 1.03 ± 0.071

TTGGTAGAAT
switch fluorescence ratio: 1.01 ± 0.014

TTGGTATACG
switch fluorescence ratio: 0.997 ± 0.026

TTGGTATAGC
switch fluorescence ratio: 1.003 ± 0.01

TTGGTATTAT
switch fluorescence ratio: 0.986 ± 0.02

TTGGTCAATC
switch fluorescence ratio: 1.04 ± 0.024

TTGGTGCCGT
switch fluorescence ratio: 1.13 ± 0.046

TTGGTGCTTG
switch fluorescence ratio: 1 ± 0.041

TTGGTGGCTT
switch fluorescence ratio: 0.968 ± 0.03

TTGGTGGGGA
switch fluorescence ratio: 0.987 ± 0.042

TTGGTGGGGC
switch fluorescence ratio: 0.98 ± 0.02

TTGGTGTGTT
switch fluorescence ratio: 1.01 ± 0.013

TTGGTGTTGG
switch fluorescence ratio: 1.01 ± 0.044

TTGGTTACGT
switch fluorescence ratio: 1 ± 0.039

TTGGTTATAC
switch fluorescence ratio: 1.12 ± 0.046

TTGGTTCAAG
switch fluorescence ratio: 1.013 ± 0.0027

TTGGTTCCGT
switch fluorescence ratio: 1.01 ± 0.026

TTGGTTCGGA
switch fluorescence ratio: 0.993 ± 0.015

TTGGTTCTGG
switch fluorescence ratio: 0.962 ± 0.038

TTGGTTGAGG
switch fluorescence ratio: 0.974 ± 0.02

TTGGTTGGGT
switch fluorescence ratio: 0.997 ± 0.041

TTGGTTGGTG
switch fluorescence ratio: 1.03 ± 0.11

TTGGTTTAAG
switch fluorescence ratio: 1 ± 0.027

TTGGTTTGCT
switch fluorescence ratio: 1.005 ± 0.0045

TTGGTTTGGC
switch fluorescence ratio: 1.01 ± 0.019

TTGTAAAATG
switch fluorescence ratio: 0.996 ± 0.013

TTGTAATGAG
switch fluorescence ratio: 1.04 ± 0.065

TTGTAATGGG
switch fluorescence ratio: 0.988 ± 0.019

TTGTACGCCC
switch fluorescence ratio: 1.24 ± 0.2

TTGTACTTGG
switch fluorescence ratio: 1.04 ± 0.072

TTGTAGAGCT
switch fluorescence ratio: 0.949 ± 0.017

TTGTAGGGAA
switch fluorescence ratio: 1.03 ± 0.013

TTGTAGGGGA
switch fluorescence ratio: 1.04 ± 0.06

TTGTAGTTG
switch fluorescence ratio: 0.9952 ± 0.0062

TTGTAGTTTG
switch fluorescence ratio: 0.977 ± 0.0071

TTGTATATTT
switch fluorescence ratio: 0.982 ± 0.02

TTGTATCTTT
switch fluorescence ratio: 1.03 ± 0.011

TTGTATGTAG
switch fluorescence ratio: 1.02 ± 0.021

TTGTATTGGT
switch fluorescence ratio: 1.04 ± 0.11

TTGTCACAGG
switch fluorescence ratio: 1.09 ± 0.056

TTGTCACGGG
switch fluorescence ratio: 1.02 ± 0.05

TTGTCAGACT
switch fluorescence ratio: 0.9801 ± 0.0028

TTGTCATGGG
switch fluorescence ratio: 0.958 ± 0.011

TTGTCATTGG
switch fluorescence ratio: 0.992 ± 0.019

TTGTCATTTA
switch fluorescence ratio: 0.992 ± 0.031

TTGTCCTAGT
switch fluorescence ratio: 1.008 ± 0.0012

TTGTCCTCCT
switch fluorescence ratio: 1.11 ± 0.11

TTGTCCTGGG
switch fluorescence ratio: 1.02 ± 0.012

TTGTCGGGTG
switch fluorescence ratio: 1.03 ± 0.089

TTGTCTTTGG
switch fluorescence ratio: 1.01 ± 0.041

TTGTGAAGGC
switch fluorescence ratio: 1.04 ± 0.015

TTGTGAAGGG
switch fluorescence ratio: 0.9663 ± 0.0013

TTGTGAATTT
switch fluorescence ratio: 1.28 ± 0.43

TTGTGACATA
switch fluorescence ratio: 1 ± 0.023

TTGTGAGGCA
switch fluorescence ratio: 1.006 ± 0.0066

TTGTGCGCAG
switch fluorescence ratio: 1 ± 0.029

TTGTGCGGGT
switch fluorescence ratio: 1.02 ± 0.049

TTGTGGCGTT
switch fluorescence ratio: 0.984 ± 0.0045

TTGTGGGAAA
switch fluorescence ratio: 1.02 ± 0.016

TTGTGGGAAG
switch fluorescence ratio: 0.976 ± 0.034

TTGTGGGGAA
switch fluorescence ratio: 1.12 ± 0.2

TTGTGGGGAG
switch fluorescence ratio: 0.97 ± 0.024

TTGTGGGGTT
switch fluorescence ratio: 0.984 ± 0.048

TTGTGGGTAG
switch fluorescence ratio: 1.02 ± 0.043

TTGTGGTGAG
switch fluorescence ratio: 0.987 ± 0.016

TTGTGTGTAG
switch fluorescence ratio: 1.04 ± 0.033

TTGTGTGTTA
switch fluorescence ratio: 0.9687 ± 0.0052

TTGTGTTGGT
switch fluorescence ratio: 0.999 ± 0.041

TTGTGTTTAC
switch fluorescence ratio: 1.07 ± 0.11

TTGTTAATGA
switch fluorescence ratio: 0.979 ± 0.046

TTGTTAATTG
switch fluorescence ratio: 1.01 ± 0.041

TTGTTACTCG
switch fluorescence ratio: 0.976 ± 0.048

TTGTTAGGGT
switch fluorescence ratio: 0.958 ± 0.011

TTGTTAGGTT
switch fluorescence ratio: 1.06 ± 0.13

TTGTTCCGAT
switch fluorescence ratio: 1.02 ± 0.032

TTGTTCGCTT
switch fluorescence ratio: 1.03 ± 0.025

TTGTTCTAAC
switch fluorescence ratio: 1.0276 ± 0.00054

TTGTTCTGGG
switch fluorescence ratio: 0.972 ± 0.022

TTGTTGA
switch fluorescence ratio: 0.984 ± 0.042

TTGTTGCAGC
switch fluorescence ratio: 1.02 ± 0.035

TTGTTGCCGT
switch fluorescence ratio: 0.984 ± 0.065

TTGTTGCGTT
switch fluorescence ratio: 0.986 ± 0.025

TTGTTGGAAT
switch fluorescence ratio: 1 ± 0.019

TTGTTGGAGG
switch fluorescence ratio: 0.982 ± 0.025

TTGTTGGAGT
switch fluorescence ratio: 0.985 ± 0.018

TTGTTGGGAT
switch fluorescence ratio: 0.996 ± 0.028

TTGTTGGGG
switch fluorescence ratio: 0.994 ± 0.03

TTGTTGGGGA
switch fluorescence ratio: 1 ± 0.019

TTGTTGGTCT
switch fluorescence ratio: 1.009 ± 0.0075

TTGTTGGTTG
switch fluorescence ratio: 0.975 ± 0.034

TTGTTGTCTT
switch fluorescence ratio: 1.02 ± 0.043

TTGTTGTGGG
switch fluorescence ratio: 0.986 ± 0.024

TTGTTGTTTG
switch fluorescence ratio: 1.03 ± 0.025

TTGTTTAAGT
switch fluorescence ratio: 1.001 ± 0.0081

TTGTTTAATA
switch fluorescence ratio: 1.02 ± 0.019

TTGTTTAATC
switch fluorescence ratio: 1.036 ± 0.0097

TTGTTTAGCC
switch fluorescence ratio: 0.989 ± 0.032

TTGTTTATGG
switch fluorescence ratio: 0.983 ± 0.015

TTGTTTCAGG
switch fluorescence ratio: 1.01 ± 0.018

TTGTTTCTTT
switch fluorescence ratio: 1 ± 0.017

TTGTTTGAAA
switch fluorescence ratio: 1 ± 0.064

TTGTTTGCCT
switch fluorescence ratio: 1.04 ± 0.037

TTGTTTGGTT
switch fluorescence ratio: 0.983 ± 0.034

TTGTTTTATT
switch fluorescence ratio: 0.981 ± 0.038

TTGTTTTCCT
switch fluorescence ratio: 1.02 ± 0.011

TTGTTTTCTT
switch fluorescence ratio: 1 ± 0.045

TTGTTTTGTG
switch fluorescence ratio: 0.978 ± 0.013

TTGTTTTTAG
switch fluorescence ratio: 0.988 ± 0.04

TTGTTTTTCC
switch fluorescence ratio: 1.03 ± 0.057

TTTAAAAA
switch fluorescence ratio: 1.02 ± 0.044

TTTAAAAAGG
switch fluorescence ratio: 0.982 ± 0.029

TTTAAAAGGG
switch fluorescence ratio: 1 ± 0.027

TTTAAAATAG
switch fluorescence ratio: 1.01 ± 0.019

TTTAAACTT
switch fluorescence ratio: 1.63 ± 1.1

TTTAAACTTT
switch fluorescence ratio: 1.013 ± 0.0075

TTTAAAGGTT
switch fluorescence ratio: 1.02 ± 0.054

TTTAAATTAG
switch fluorescence ratio: 0.969 ± 0.046

TTTAAATTTT
switch fluorescence ratio: 1 ± 0.03

TTTAACGCCA
switch fluorescence ratio: 1.082 ± 0.0028

TTTAACGGGG
switch fluorescence ratio: 0.987 ± 0.034

TTTAACGTAC
switch fluorescence ratio: 1.83 ± 0.15

TTTAACGTCG
switch fluorescence ratio: 1.035 ± 0.005

TTTAAGAAGG
switch fluorescence ratio: 1 ± 0.015

TTTAAGAATC
switch fluorescence ratio: 0.994 ± 0.03

TTTAAGAGAT
switch fluorescence ratio: 0.998 ± 0.028

TTTAAGATAT
switch fluorescence ratio: 1.09 ± 0.074

TTTAAGCGCC
switch fluorescence ratio: 0.966 ± 0.0085

TTTAAGGATT
switch fluorescence ratio: 1.21 ± 0.33

TTTAAGGTTG
switch fluorescence ratio: 0.986 ± 0.023

TTTAAGTAGG
switch fluorescence ratio: 1.02 ± 0.048

TTTAAGTATT
switch fluorescence ratio: 0.999 ± 0.02

TTTAAGTCGA
switch fluorescence ratio: 1.02 ± 0.04

TTTAAGTGAG
switch fluorescence ratio: 0.981 ± 0.021

TTTAATAGTG
switch fluorescence ratio: 0.971 ± 0.014

TTTAATATGA
switch fluorescence ratio: 0.997 ± 0.035

TTTAATCAGG
switch fluorescence ratio: 1.04 ± 0.025

TTTAATTCT
switch fluorescence ratio: 0.989 ± 0.022

TTTAATTGTA
switch fluorescence ratio: 1.01 ± 0.044

TTTAATTTT
switch fluorescence ratio: 1.04 ± 0.078

TTTAATTTTG
switch fluorescence ratio: 1 ± 0.036

TTTACACGAT
switch fluorescence ratio: 1.01 ± 0.019

TTTACAGAGT
switch fluorescence ratio: 1.06 ± 0.12

TTTACAGCTT
switch fluorescence ratio: 0.987 ± 0.027

TTTACAGGAT
switch fluorescence ratio: 0.993 ± 0.024

TTTACCAGGG
switch fluorescence ratio: 1.13 ± 0.085

TTTACCATAG
switch fluorescence ratio: 1.06 ± 0.019

TTTACCCAGT
switch fluorescence ratio: 1.04 ± 0.066

TTTACCCATC
switch fluorescence ratio: 1.04 ± 0.033

TTTACCGGTA
switch fluorescence ratio: 1.01 ± 0.023

TTTACCGTCT
switch fluorescence ratio: 1.04 ± 0.018

TTTACCTATA
switch fluorescence ratio: 1.02 ± 0.013

TTTACGAAGT
switch fluorescence ratio: 0.966 ± 0.013

TTTACGCGTC
switch fluorescence ratio: 1.16 ± 0.27

TTTACGGAGC
switch fluorescence ratio: 1.37 ± 0.075

TTTACGGCGG
switch fluorescence ratio: 0.987 ± 0.021

TTTACGGCGT
switch fluorescence ratio: 0.994 ± 0.017

TTTACGGCTT
switch fluorescence ratio: 1.05 ± 0.078

TTTACGGGGG
switch fluorescence ratio: 1 ± 0.043

TTTACGTGCA
switch fluorescence ratio: 1.04 ± 0.073

TTTACTATTT
switch fluorescence ratio: 0.988 ± 0.035

TTTACTGCTT
switch fluorescence ratio: 0.981 ± 0.044

TTTACTGGCT
switch fluorescence ratio: 1.02 ± 0.0011

TTTAGAACGA
switch fluorescence ratio: 1.01 ± 0.025

TTTAGAATTT
switch fluorescence ratio: 1.01 ± 0.019

TTTAGACTGG
switch fluorescence ratio: 1 ± 0.022

TTTAGAGCTT
switch fluorescence ratio: 1.02 ± 0.024

TTTAGATAAA
switch fluorescence ratio: 1.02 ± 0.017

TTTAGATATT
switch fluorescence ratio: 0.98873 ± 0.00041

TTTAGATCAA
switch fluorescence ratio: 1 ± 0.0019

TTTAGATGCT
switch fluorescence ratio: 1.03 ± 0.099

TTTAGATTCA
switch fluorescence ratio: 1.001 ± 0.0043

TTTAGCATGT
switch fluorescence ratio: 1.04 ± 0.073

TTTAGCCGGG
switch fluorescence ratio: 0.985 ± 0.014

TTTAGCCTCG
switch fluorescence ratio: 0.992 ± 0.046

TTTAGCGGGG
switch fluorescence ratio: 1.01 ± 0.016

TTTAGCTGCC
switch fluorescence ratio: 1.16 ± 0.064

TTTAGCTTCA
switch fluorescence ratio: 1.099 ± 0.0078

TTTAGCTTTA
switch fluorescence ratio: 0.9735 ± 0.0092

TTTAGCTTTT
switch fluorescence ratio: 1.04 ± 0.01

TTTAGGATCT
switch fluorescence ratio: 0.954 ± 0.017

TTTAGGCAAA
switch fluorescence ratio: 1.05 ± 0.12

TTTAGGCCCA
switch fluorescence ratio: 1.03 ± 0.041

TTTAGGCGTT
switch fluorescence ratio: 1.01 ± 0.057
